Measured values: US20110117086A1 (LES LABORATOIRES SERVIER, published 2011)
“And” between values parts separate entries of the source, which are not always exact repeats. Equal entries are not always repeated. Non-standard residues stand in square brackets, D forms with d. No end group written: not given here. KLH = keyhole limpet hemocyanin; Ahx = NCCCCCC(=O)O

T1: Recombinant human progastrin (human, UniProt P01350 22-101)
T1 sequence: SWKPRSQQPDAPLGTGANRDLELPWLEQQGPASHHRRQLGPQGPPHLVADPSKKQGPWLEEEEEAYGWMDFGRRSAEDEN

T2: Immunogen N2 = SWKPRSQQPDAPLG Ahx Cys KLH (human)
T2 construct: hPG residues 1 to 14 with linker, coupled to the KLH carrier; also called KLH-linked N-terminal peptide
T2 peptide: SWKPRSQQPDAPLG[Ahx]C-{KLH}

B1: Anti-hPG MAb 16 (antibody, V domains shown)
VH: QVQLQQSGAELVKPGASVKLSCKASGYTFTSYYMYWVKQRPGQGLEWIGEINPSNGGTNFNEKFKSKATLTVDKSSSTAYMQLSSLTSEDSAVYYCTRGGYYPFDYWGQGTTLTVSS
VL: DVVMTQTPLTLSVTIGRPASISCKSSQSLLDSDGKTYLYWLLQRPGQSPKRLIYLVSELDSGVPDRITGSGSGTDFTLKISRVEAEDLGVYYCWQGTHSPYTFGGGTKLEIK
notes: Mouse IgG1, hybridoma 1E9D9B6, raised against immunogen N2; also called 1E9D9B6
B2: Anti-hPG MAb 19 (antibody, V domains shown)
VH: DVQLQESGPGLVKPSQSLSLTCTVTGYSITSDYAWNWIRQFPGNKLEWMGYISFSGYTSYNPSLKSRISVTRDTSRNQFFLQLTSVTTEDTATYYCAREVNYGDSYHFDYWGQGTIVTVSS
VL: QLALTQSSSASFSLGASAKLTCTLSSQHRTYTIEWYQQQSLKPPKYVMEVKKDGSHSTGHGIPDRFSGSSSGADRYLSISNIQPEDEAIYICGVGDAIKGQSVFVFGGGTKVTVL
notes: Mouse IgG2, hybridoma 1B3B4F11, raised against immunogen N2; also called 1B3B4F11
B3: Anti-hPG MAb 8 (antibody, V domains shown)
VH: EVQLVESGGGLVKPGGSLKLSCAASGFTFTTYAMSWVRQTPEKRLEWVATISSGGTYTYYPDSVKGRFTISRDNAKNALYLQMSSLRSEDTAMYYCATQGNYSLDFWGQGTSLTVSS
VL: DIVMTQAASSNPVTLGTSASISCRSSKSLRHTKGITFLYWYLQKPGQSPQLLIYQMSNLASGVPDRFSSSGSGTDFTLRISRVEAEDLGVYYCAQNLELPLTFGAGTKLELK
notes: Mouse IgG1, hybridoma 1C10D3B9, raised against immunogen C1; also called 1C10D3B9
B4: Anti-hPG MAb 4 (antibody, V domains shown)
VH: QVQLQQSGAELMKPGASVKISCKATGYTFSSSWIEWLKQRPGHGLEWIGEFLPGSGSTDYNEKFKGKATFTADTSSDTAYMLLSSLTSEDSAVYYCATDGNYDWFAYWGQGTLVTVSA
VL: DLVMTQTPLSLPVSLGDQASISCRSSQSLVHSSGVTYLHWYLQKPGQSPKLLIYKVSNRFSGVPDRFSGSGSGTDFTLKISRVEAEDLGVYFCSQSTHVPPTFGSGTKLEIK
notes: Mouse IgG1, hybridoma 20D2C3G2, raised against immunogen N2; also called 20D2C3G2
B5: Anti-hPG MAb 3 (antibody, V domains shown)
VH: EVQLQQSGTVLARPGASVKMSCKASGYIFTSYWVHWVKQRPGQGLEWIGGFYPGNSDSRYNQKFKGKATLTAVTSASTAYMDLSSLTNEDSAVYFCTRRDSPQYWGQGTTLTVSS
VL: DVLMTQTPLSLPVSLGDQASISCRSSQSIVHSNGNTYLEWYLQKPGQSPKLLIYKVSNRFSGVPDRFSGSGSGTDFTLKISRLEAEDLGVYYCFQGSHVPFTFGGGTKLEIK
notes: Mouse IgG1, hybridoma 6B5B11C10, raised against immunogen N2; also called 6B5B11C10
B6: Anti-hPG MAb 13 (antibody, V domains shown)
VH: EVQLVESGGGLVQPGGSLKLSCAASGFIFSSYGMSWVRQSPDRRLELVASINTFGDRTYYPDSVKGRFTISRDNAKNTLYLQMTSLKSEDTAIYYCARGTGTYWGQGTTLTVSS
VL: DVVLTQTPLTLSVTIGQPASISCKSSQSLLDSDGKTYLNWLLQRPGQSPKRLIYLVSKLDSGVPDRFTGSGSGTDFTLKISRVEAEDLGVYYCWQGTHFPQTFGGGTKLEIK
notes: Mouse IgG1, hybridoma 2C6C3C7, raised against immunogen C1; also called 2C6C3C7

What was measured:
[1] = molecular target: T1, Recombinant human progastrin; assay: cell-based or functional assay
[2] = molecular target: T1, Recombinant human progastrin; assay: cell-based or functional assay; remark: listed apart in the source
[3] = molecular target: T1, Recombinant human progastrin; assay: SPR (Proteon), MAb captured on anti-mouse IgG, hPG injected
Description: To provide a more absolute quantification of affinity for the monoclonal antibodies, affinity constants were measured using the Proteon Technique (BioRad), according to Nahshol et al., 2008, Analytical Biochemistry 383:52-60, hereby incorporated by reference in its entirety. Briefly, an anti-mouse IgG antibody (50 μg/ml) was first coated on a sensor chip, making sure that the signal detected by the chip after injection of the antibody falls between 10,000 and 11,500 RU (response units). The murine monoclonal antibody to be tested was then injected (typical concentrations: 30 μg/ml). Sufficient binding of the antibody to be tested was determined based on a further signal of at least 500 RU on the sensor chip. A time-course of interaction between monoclonal anti-progastrin antibodies and progastrin was then measured by injecting varying concentrations of progastrin, for example 200, 100, 50, 25, and 12.5 nM, and the level of association detected. Typically, several channels are available to test multiple antibodies in parallel in a single experiment, making it possible to assay binding of test antibodies at varying concentrations of PG in parallel. Typically, one channel is reserved for a murine monoclonal antibody that is not specific to PG, as a control for non-specific binding, and another channel is injected with dilution buffer alone as a baseline for the background signal. Generally, no binding is detectable in the channels injected with non-specific murine antibody. Antibodies displaying a high level of association in this setting, which may result in saturation of the trapped monoclonal antibody by progastrin, can be tested against lower progastrin concentrations (50, 25, 12.5, 6.25 and 3.125 nM), allowing for a more refined measurement.
Affinity constants (KD) were calculated as the ratio between the dissociation constant (kd) and the association constant (ka). Experimental values were validated by analyzing the statistically relevant similarity between experimental curves based on binding measurements and theoretical profiles. The mathematical model used in the Proteon experiments to select whether experimental curves fit with the theoretical model was the Langmuir model, based on a 1:1 interaction between progastrin molecules and anti-progastrin monoclonal antibodies.

[4] = molecular target: T1, Recombinant human progastrin; assay: ELISA on 50 ng coated hPG, antibody titrated, OD 492 nm, n=2
Description: After blocking, the wells were washed three times and the primary antibody—the antibody to be assayed—added. For initial screening of fused splenocytes, 50 μL of culture supernatant from each culture to be assayed was added to each well in the plate. In assays performed on monoclonal antibodies, 100 μL of the test antibody in PBS and 0.1% Tween-20 was added to each well. Plates were then incubated for 2 hours at 22° C., after which the primary antibody solution was discarded and replaced, after a wash step (3×100 μL wash solution, as noted above), with blocking solution containing the secondary antibody, which binds the primary antibody and is coupled to an enzyme. The secondary antibody was a goat anti-mouse IgG (Fc) antibody coupled to horseradish peroxidase. […] The reaction was then stopped by adding 50 μL of 4N sulfuric acid and the amount of substrate catalyzed determined by measuring the optical density (O.D.) at 492 nm. […] Samples were scored as positive for anti-PG antibodies if the measured O.D. was between 0.2 and 1.5. […]
Relative affinity of exemplary monoclonal antibodies was measured using the ELISA method described above, in which wells were coated with a peptide solution containing 50 ng progastrin and then incubated in the presence of increasing concentrations of each monoclonal antibody as follows: […]

[5] = molecular target: T1, Recombinant human progastrin; assay: cell-based or functional assay; remark: listed apart in the source
[6] = molecular target: T1, Recombinant human progastrin; assay: cell-based or functional assay; remark: listed apart in the source
[7] = molecular target: T2, Immunogen N2 = SWKPRSQQPDAPLG Ahx Cys …; assay: ELISA of hybridoma supernatants
[8] = molecular target: T1, Recombinant human progastrin; assay: competition ELISA: hPG captured by a C-terminal polyclonal antibody; MAb 3 titrated against 10 µg/ml biotinylated N-terminal anti-hPG polyclonal antibody; streptavidin-HRP, luminescence, n=2
Description: The ability of an anti-hPG monoclonal antibody to compete with an anti-hPG polyclonal antibody for binding to progastrin was determined using an ELISA with a “capture” anti-hPG antibody and a “detection” anti-hPG antibody. Anti-hPG MAb 3 was assayed as follows: 96-well plates were pre-coated with C-terminal progastrin polyclonal antibodies raised against a peptide consisting of residues 71 to 80 of hPG. The plates were then incubated with […] progastrin was incubated, followed by addition of 10 μg/ml biotinylated N-terminal anti-hPG polyclonal antibody, raised against a peptide consisting of the amino acid sequence of SEQ ID NO:25, and increasing concentrations of anti-hPG MAb 3 monoclonal antibody. Binding of the biotinylated N-terminal anti-hPG polyclonal antibody was detected by incubating the plates with streptavidin-HRP followed by OPD, according to standard protocols. Binding was measured by quantifying luminescence.

Binder	surviving SW 620 cells, % of control MAb-treated cells (cell numbers - T0) [1]	surviving LS 174T cells, % of control MAb-treated cells (cell numbers - T0) [2]	Kd [3]	EC50 (read off the curve) [4] [ng/mL]	surviving HCT-116 cells, % of control MAb-treated cells (cell numbers - T0) [5]	viable LS174T cells (CellTiter 96 absorbance at 490 nm), % of control MAb; anti-hPG MAb 8 pre-incubated with 20-fold molar excess hPG [6]	binding result [7]	IC50 (read off the curve) [8] [ng/mL]
B1	58 % of control	61 % of control	0.2 nM and 0.278 nM	~2				
B2	69 % of control	84.5 % of control	0.7 nM and 0.779 nM		88 % of control			
B3	40 % of control	42 % of control	0.1 nM and 0.108 nM		62 % of control	148 % of control		
B4			3.5 nM	~8			binds	
B5			6.4 nM				binds	~4000
B6	48 % of control	58 % of control	0.6 nM and 0.612 nM		36 % of control			
